Measured values: IntAct's records for PubMed 22778397

B1: RNA-binding protein FUS (Homo sapiens), P35637 (parent)
chain: MASNDYTQQATQSYGAYPTQPGQGYSQQSSQPYGQQSYSGYSQSTDTSGYGQSSYSSYGQSQNTGYGTQSTPQGYGSTGGYGSSQSSQSSYGQQSSYPGYGQQPAPSSTSGSYGSSSQSSSYGQPQSGSYSQQPSYGGQQQSYGQQQSYNPPQGYGQQNQYNSSSGGGGGGGGGGNYGQDQSSMSSGGGSGGGYGNQDQSGGGGSGGYGQQDRGGRGRGGSGGGGGGGGGGYNRSSGGYEPRGRGGGRGGRGGMGGSDRGGFNKFGGPRDQGSRHDSEQDNSDNNTIFVQGLGENVTIESVADYFKQIGIIKTNKKTGQPMINLYTDRETGKLKGEATVSFDDPPSAKAAIDWFDGKEFSGNPIKVSFATRRADFNRGGGNGRGGRGRGGPMGRGGYGGGGSGGGGRGGFPSGGGGGGGQQRAGDWKCPNPTCENMNFSWRNECNQCKAPKPDGPGGGPGGSHMGGNYGDDRRGGRGGYDRGGYRGRGGDRGGFRGGRGGGDRGGFGPGKMDSRGEHRQDRRERPY

Variants of: B1
Conditions: with TNPO1, Q92973-2
Sequence of TNPO1, Q92973-2 (Q92973 9-898): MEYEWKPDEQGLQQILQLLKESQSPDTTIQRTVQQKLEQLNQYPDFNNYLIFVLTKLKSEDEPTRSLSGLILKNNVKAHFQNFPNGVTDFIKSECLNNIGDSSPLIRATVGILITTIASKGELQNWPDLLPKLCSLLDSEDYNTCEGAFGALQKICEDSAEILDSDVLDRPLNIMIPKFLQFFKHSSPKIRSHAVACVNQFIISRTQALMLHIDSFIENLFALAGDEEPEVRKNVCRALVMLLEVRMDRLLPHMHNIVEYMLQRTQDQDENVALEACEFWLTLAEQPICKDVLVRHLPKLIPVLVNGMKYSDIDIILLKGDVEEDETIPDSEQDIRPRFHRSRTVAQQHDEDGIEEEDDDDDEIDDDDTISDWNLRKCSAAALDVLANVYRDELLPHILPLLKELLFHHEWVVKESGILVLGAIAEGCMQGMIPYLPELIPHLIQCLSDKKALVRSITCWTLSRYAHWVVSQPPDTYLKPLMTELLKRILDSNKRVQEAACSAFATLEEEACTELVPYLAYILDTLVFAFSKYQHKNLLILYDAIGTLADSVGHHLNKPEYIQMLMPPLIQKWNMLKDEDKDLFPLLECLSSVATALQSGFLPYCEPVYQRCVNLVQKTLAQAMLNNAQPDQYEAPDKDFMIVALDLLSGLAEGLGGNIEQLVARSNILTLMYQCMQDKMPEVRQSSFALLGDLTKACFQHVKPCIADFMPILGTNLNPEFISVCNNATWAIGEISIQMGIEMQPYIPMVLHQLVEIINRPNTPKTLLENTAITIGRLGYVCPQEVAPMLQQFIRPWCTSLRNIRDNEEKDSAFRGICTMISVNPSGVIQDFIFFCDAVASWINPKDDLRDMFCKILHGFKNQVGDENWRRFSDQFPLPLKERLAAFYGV

Effect of a mutation on the interaction, decreasing interaction strength:
MASNDYTQQATQSYGAYPTQPGQGYSQQSSQPYGQQSYSGYSQSTDTSGYGQSSYSSYGQSQNTGYGTQSTPQGYGSTGGYGSSQSSQSSYGQQSSYPGYGQQPAPSSTSGSYGSSSQSSSYGQPQSGSYSQQPSYGGQQQSYGQQQSYNPPQGYGQQNQYNSSSGGGGGGGGGGNYGQDQSSMSSGGGSGGGYGNQDQSGGGGSGGYGQQDRGGRGRGGSGGGGGGGGGGYNRSSGGYEPRGRGGGRGGRGGMGGSDRGGFNKFGGPRDQGSRHDSEQDNSDNNTIFVQGLGENVTIESVADYFKQIGIIKTNKKTGQPMINLYTDRETGKLKGEATVSFDDPPSAKAAIDWFDGKEFSGNPIKVSFATRRADFNRGGGNGRGGRGRGGPMGRGGYGGGGSGGGGRGGFPSGGGGGGGQQRAGDWKCPNPTCENMNFSWRNECNQCKAPKPDGPGGGPGGSHMGGNYGDDRRGGRGGYDRGGYRGRGGDRGGFRGGRGGGDRGGFGPGKMDSRGEHAQDRRERPY [R518A]
MASNDYTQQATQSYGAYPTQPGQGYSQQSSQPYGQQSYSGYSQSTDTSGYGQSSYSSYGQSQNTGYGTQSTPQGYGSTGGYGSSQSSQSSYGQQSSYPGYGQQPAPSSTSGSYGSSSQSSSYGQPQSGSYSQQPSYGGQQQSYGQQQSYNPPQGYGQQNQYNSSSGGGGGGGGGGNYGQDQSSMSSGGGSGGGYGNQDQSGGGGSGGYGQQDRGGRGRGGSGGGGGGGGGGYNRSSGGYEPRGRGGGRGGRGGMGGSDRGGFNKFGGPRDQGSRHDSEQDNSDNNTIFVQGLGENVTIESVADYFKQIGIIKTNKKTGQPMINLYTDRETGKLKGEATVSFDDPPSAKAAIDWFDGKEFSGNPIKVSFATRRADFNRGGGNGRGGRGRGGPMGRGGYGGGGSGGGGRGGFPSGGGGGGGQQRAGDWKCPNPTCENMNFSWRNECNQCKAPKPDGPGGGPGGSHMGGNYGDDRRGGRGGYDRGGYRGRGGDRGGFRGGRGGGDRGGFGPGKMDSRGEHRQDRAERPY [R522A]
MASNDYTQQATQSYGAYPTQPGQGYSQQSSQPYGQQSYSGYSQSTDTSGYGQSSYSSYGQSQNTGYGTQSTPQGYGSTGGYGSSQSSQSSYGQQSSYPGYGQQPAPSSTSGSYGSSSQSSSYGQPQSGSYSQQPSYGGQQQSYGQQQSYNPPQGYGQQNQYNSSSGGGGGGGGGGNYGQDQSSMSSGGGSGGGYGNQDQSGGGGSGGYGQQDRGGRGRGGSGGGGGGGGGGYNRSSGGYEPRGRGGGRGGRGGMGGSDRGGFNKFGGPRDQGSRHDSEQDNSDNNTIFVQGLGENVTIESVADYFKQIGIIKTNKKTGQPMINLYTDRETGKLKGEATVSFDDPPSAKAAIDWFDGKEFSGNPIKVSFATRRADFNRGGGNGRGGRGRGGPMGRGGYGGGGSGGGGRGGFPSGGGGGGGQQRAGDWKCPNPTCENMNFSWRNECNQCKAPKPDGPGGGPGGSHMGGNYGDDRRGGRGGYDRGGYRGRGGDRGGFRGGRGGGDRGGFGPGKMDSRGEHRQDCRERPY [R521C]
MASNDYTQQATQSYGAYPTQPGQGYSQQSSQPYGQQSYSGYSQSTDTSGYGQSSYSSYGQSQNTGYGTQSTPQGYGSTGGYGSSQSSQSSYGQQSSYPGYGQQPAPSSTSGSYGSSSQSSSYGQPQSGSYSQQPSYGGQQQSYGQQQSYNPPQGYGQQNQYNSSSGGGGGGGGGGNYGQDQSSMSSGGGSGGGYGNQDQSGGGGSGGYGQQDRGGRGRGGSGGGGGGGGGGYNRSSGGYEPRGRGGGRGGRGGMGGSDRGGFNKFGGPRDQGSRHDSEQDNSDNNTIFVQGLGENVTIESVADYFKQIGIIKTNKKTGQPMINLYTDRETGKLKGEATVSFDDPPSAKAAIDWFDGKEFSGNPIKVSFATRRADFNRGGGNGRGGRGRGGPMGRGGYGGGGSGGGGRGGFPSGGGGGGGQQRAGDWKCPNPTCENMNFSWRNECNQCKAPKPDGPGGGPGGSHMGGNYGDDRRGGRGGYDRGGYRGRGGDRGGFRGGRGGGDRGGFGPGKMDSRGEHRQDRRERAA [P525A;Y526A]
MASNDYTQQATQSYGAYPTQPGQGYSQQSSQPYGQQSYSGYSQSTDTSGYGQSSYSSYGQSQNTGYGTQSTPQGYGSTGGYGSSQSSQSSYGQQSSYPGYGQQPAPSSTSGSYGSSSQSSSYGQPQSGSYSQQPSYGGQQQSYGQQQSYNPPQGYGQQNQYNSSSGGGGGGGGGGNYGQDQSSMSSGGGSGGGYGNQDQSGGGGSGGYGQQDRGGRGRGGSGGGGGGGGGGYNRSSGGYEPRGRGGGRGGRGGMGGSDRGGFNKFGGPRDQGSRHDSEQDNSDNNTIFVQGLGENVTIESVADYFKQIGIIKTNKKTGQPMINLYTDRETGKLKGEATVSFDDPPSAKAAIDWFDGKEFSGNPIKVSFATRRADFNRGGGNGRGGRGRGGPMGRGGYGGGGSGGGGRGGFPSGGGGGGGQQRAGDWKCPNPTCENMNFSWRNECNQCKAPKPDGPGGGPGGSHMGGNYGDDRRGGRGGYDRGGYRGRGGDRGGFRGGRGGGDRGGFGPGKMDSRGEQRQDRRERPY [H517Q]
MASNDYTQQATQSYGAYPTQPGQGYSQQSSQPYGQQSYSGYSQSTDTSGYGQSSYSSYGQSQNTGYGTQSTPQGYGSTGGYGSSQSSQSSYGQQSSYPGYGQQPAPSSTSGSYGSSSQSSSYGQPQSGSYSQQPSYGGQQQSYGQQQSYNPPQGYGQQNQYNSSSGGGGGGGGGGNYGQDQSSMSSGGGSGGGYGNQDQSGGGGSGGYGQQDRGGRGRGGSGGGGGGGGGGYNRSSGGYEPRGRGGGRGGRGGMGGSDRGGFNKFGGPRDQGSRHDSEQDNSDNNTIFVQGLGENVTIESVADYFKQIGIIKTNKKTGQPMINLYTDRETGKLKGEATVSFDDPPSAKAAIDWFDGKEFSGNPIKVSFATRRADFNRGGGNGRGGRGRGGPMGRGGYGGGGSGGGGRGGFPSGGGGGGGQQRAGDWKCPNPTCENMNFSWRNECNQCKAPKPDGPGGGPGGSHMGGNYGDDRRGGRGGYDRGGYRGRGGDRGGFRGGRGGGDRGGFGPGKMDSRGEHRQDRRESPY [R524S]
MASNDYTQQATQSYGAYPTQPGQGYSQQSSQPYGQQSYSGYSQSTDTSGYGQSSYSSYGQSQNTGYGTQSTPQGYGSTGGYGSSQSSQSSYGQQSSYPGYGQQPAPSSTSGSYGSSSQSSSYGQPQSGSYSQQPSYGGQQQSYGQQQSYNPPQGYGQQNQYNSSSGGGGGGGGGGNYGQDQSSMSSGGGSGGGYGNQDQSGGGGSGGYGQQDRGGRGRGGSGGGGGGGGGGYNRSSGGYEPRGRGGGRGGRGGMGGSDRGGFNKFGGPRDQGSRHDSEQDNSDNNTIFVQGLGENVTIESVADYFKQIGIIKTNKKTGQPMINLYTDRETGKLKGEATVSFDDPPSAKAAIDWFDGKEFSGNPIKVSFATRRADFNRGGGNGRGGRGRGGPMGRGGYGGGGSGGGGRGGFPSGGGGGGGQQRAGDWKCPNPTCENMNFSWRNECNQCKAPKPDGPGGGPGGSHMGGNYGDDRRGGRGGYDRGGYRGRGGDRGGFRGGRGGGDRGGFGPGKMDSRGEHRQDRRERPA [Y526A]
